Experimental data: article PMC12669767

T1: HECW1, endogenous in HEK293T, Q76N89
T1 chain: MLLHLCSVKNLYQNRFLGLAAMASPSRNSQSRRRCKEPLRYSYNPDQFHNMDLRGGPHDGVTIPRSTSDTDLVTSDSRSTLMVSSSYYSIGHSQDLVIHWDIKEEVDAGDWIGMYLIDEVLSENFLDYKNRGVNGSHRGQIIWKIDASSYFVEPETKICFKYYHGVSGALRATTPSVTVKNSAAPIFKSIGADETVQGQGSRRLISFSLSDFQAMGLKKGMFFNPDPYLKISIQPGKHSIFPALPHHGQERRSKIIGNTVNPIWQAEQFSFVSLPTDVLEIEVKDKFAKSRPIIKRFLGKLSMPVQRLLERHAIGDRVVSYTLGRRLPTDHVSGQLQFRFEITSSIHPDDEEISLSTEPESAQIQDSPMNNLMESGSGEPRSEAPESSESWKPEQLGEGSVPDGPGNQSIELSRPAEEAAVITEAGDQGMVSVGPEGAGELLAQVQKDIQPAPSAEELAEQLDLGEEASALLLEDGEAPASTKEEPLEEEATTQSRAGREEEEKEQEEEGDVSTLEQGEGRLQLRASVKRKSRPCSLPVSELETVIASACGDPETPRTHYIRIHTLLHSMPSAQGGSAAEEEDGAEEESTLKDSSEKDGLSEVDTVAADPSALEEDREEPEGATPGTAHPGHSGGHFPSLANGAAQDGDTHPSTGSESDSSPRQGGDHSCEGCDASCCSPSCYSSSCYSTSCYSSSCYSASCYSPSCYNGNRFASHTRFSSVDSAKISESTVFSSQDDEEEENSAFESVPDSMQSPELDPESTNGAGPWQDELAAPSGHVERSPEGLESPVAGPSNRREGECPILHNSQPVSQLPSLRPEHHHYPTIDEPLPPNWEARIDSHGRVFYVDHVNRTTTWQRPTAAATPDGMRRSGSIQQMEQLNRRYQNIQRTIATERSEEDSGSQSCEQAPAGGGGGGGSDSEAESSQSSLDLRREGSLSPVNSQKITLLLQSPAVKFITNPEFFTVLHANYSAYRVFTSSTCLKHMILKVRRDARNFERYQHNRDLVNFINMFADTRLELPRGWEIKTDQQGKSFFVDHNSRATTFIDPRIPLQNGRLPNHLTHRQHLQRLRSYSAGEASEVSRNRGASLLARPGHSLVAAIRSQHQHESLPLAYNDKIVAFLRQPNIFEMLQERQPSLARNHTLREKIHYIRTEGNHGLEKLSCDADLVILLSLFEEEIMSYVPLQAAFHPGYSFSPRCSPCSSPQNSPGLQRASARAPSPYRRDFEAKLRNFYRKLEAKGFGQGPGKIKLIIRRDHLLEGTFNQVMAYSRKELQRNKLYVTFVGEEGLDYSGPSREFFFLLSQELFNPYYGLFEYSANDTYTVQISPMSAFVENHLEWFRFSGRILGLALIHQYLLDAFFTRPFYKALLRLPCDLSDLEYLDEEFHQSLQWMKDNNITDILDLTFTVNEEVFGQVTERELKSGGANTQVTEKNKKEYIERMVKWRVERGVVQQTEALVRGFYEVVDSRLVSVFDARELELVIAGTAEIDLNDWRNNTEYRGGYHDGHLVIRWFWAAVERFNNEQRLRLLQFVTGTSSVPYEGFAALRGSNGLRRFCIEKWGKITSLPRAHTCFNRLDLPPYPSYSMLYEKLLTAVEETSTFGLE

T2: NEDD4L, endogenous in HEK293T, Q96PU5
T2 chain: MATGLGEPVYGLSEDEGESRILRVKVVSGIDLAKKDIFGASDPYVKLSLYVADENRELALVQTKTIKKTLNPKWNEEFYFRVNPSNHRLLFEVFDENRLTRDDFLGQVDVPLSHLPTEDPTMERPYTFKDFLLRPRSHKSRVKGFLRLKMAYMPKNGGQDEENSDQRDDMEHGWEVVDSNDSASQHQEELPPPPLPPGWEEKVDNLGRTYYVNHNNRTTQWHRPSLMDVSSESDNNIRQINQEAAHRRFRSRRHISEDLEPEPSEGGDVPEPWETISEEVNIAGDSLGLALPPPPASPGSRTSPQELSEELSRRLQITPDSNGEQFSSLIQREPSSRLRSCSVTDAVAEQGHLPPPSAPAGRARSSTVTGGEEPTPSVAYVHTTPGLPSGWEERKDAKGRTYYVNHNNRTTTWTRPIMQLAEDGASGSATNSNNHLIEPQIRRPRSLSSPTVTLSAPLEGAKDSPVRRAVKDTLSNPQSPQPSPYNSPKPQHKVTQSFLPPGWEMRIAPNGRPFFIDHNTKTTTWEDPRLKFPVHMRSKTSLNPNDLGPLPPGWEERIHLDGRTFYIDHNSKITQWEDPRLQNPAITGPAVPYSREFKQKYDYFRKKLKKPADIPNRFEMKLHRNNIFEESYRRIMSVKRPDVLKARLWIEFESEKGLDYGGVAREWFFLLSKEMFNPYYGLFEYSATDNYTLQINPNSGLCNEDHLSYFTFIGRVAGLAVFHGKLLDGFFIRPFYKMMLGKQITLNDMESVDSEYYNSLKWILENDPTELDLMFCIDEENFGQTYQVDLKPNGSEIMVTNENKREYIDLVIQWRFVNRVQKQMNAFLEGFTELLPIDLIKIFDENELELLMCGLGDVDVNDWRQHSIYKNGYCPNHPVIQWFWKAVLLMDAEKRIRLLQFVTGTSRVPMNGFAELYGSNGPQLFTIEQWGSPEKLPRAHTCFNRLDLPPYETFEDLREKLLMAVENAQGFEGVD


Key:
Assay in all cases: co-immunoprecipitation of ALFA-TXNIP, label-free quantitative interactome (mass spectrometry)
[1] = target: T1, HECW1, endogenous in HEK293T, Q76N89; details: chain shown with the change, immunoprecipitated from HEK293T cells, n = 3, read off a plot
[2] = target: ITCH, endogenous in HEK293T, Q96J02; details: chain shown with the change, immunoprecipitated from HEK293T cells, n = 3, read off a plot; for response (normalized abundance): abundances normalized to unspecific background binding to empty beads, scatter plot
[3] = target: T2, NEDD4L, endogenous in HEK293T, Q96PU5; details: chain shown with the change, immunoprecipitated from HEK293T cells, n = 3, read off a plot; for response: histogram, parent: est. 1.1e10
[4] = target: WWP1, endogenous in HEK293T, Q9H0M0; details: chain shown with the change, immunoprecipitated from HEK293T cells, n = 3, read off a plot; for response (normalized abundance): abundances normalized to unspecific background binding to empty beads, scatter plot
[5] = abundances normalized to unspecific background binding to empty beads

Sequence of ITCH, endogenous in HEK293T, Q96J02 (Q96J02 whole entry): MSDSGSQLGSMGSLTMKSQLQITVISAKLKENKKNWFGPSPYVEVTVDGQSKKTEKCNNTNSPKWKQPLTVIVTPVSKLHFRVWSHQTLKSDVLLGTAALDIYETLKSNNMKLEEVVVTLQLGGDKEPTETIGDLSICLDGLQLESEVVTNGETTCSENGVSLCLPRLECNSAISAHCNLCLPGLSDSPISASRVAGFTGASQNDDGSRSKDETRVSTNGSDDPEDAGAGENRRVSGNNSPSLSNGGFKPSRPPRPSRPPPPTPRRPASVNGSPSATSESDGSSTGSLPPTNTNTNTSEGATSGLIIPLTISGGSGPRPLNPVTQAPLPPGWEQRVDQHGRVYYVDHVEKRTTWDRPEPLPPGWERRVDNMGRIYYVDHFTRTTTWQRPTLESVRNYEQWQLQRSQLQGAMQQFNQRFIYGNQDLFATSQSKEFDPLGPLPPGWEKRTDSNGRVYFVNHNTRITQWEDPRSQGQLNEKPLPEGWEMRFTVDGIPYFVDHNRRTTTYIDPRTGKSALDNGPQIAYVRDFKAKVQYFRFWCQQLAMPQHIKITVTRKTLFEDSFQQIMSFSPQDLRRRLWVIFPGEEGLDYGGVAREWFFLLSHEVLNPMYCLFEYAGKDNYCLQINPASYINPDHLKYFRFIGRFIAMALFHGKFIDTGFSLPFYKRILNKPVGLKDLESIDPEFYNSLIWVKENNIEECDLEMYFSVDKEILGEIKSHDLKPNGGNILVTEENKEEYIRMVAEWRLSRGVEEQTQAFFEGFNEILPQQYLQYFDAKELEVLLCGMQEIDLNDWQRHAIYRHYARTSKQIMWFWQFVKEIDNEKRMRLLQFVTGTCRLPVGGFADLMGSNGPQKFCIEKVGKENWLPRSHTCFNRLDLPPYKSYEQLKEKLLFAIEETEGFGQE

Row | other: log2 PPxY331/WT [1] | response (normalized abundance) ([2]; parent: est. 3.0e8) | other: log2 PPxY331/WT [2] | response [3, 5] | other: log2 PPxY331/WT [3] | response (normalized abundance) ([4]; parent: est. 3.2e8) | other: log2 PPxY331/WT [4] | other: log2 PPxY/WT ([1]; volcano plot) | response (normalized abundance) ([2]; parent: est. 3.5e8) | other: log2 PPxY/WT ([2]; volcano plot) | response (normalized abundance) ([3]; abundances normalized to unspecific background binding to empty beads, scatter plot, parent: est. 1.0e10) | other: log2 PPxY/WT ([3]; volcano plot) | response (normalized abundance) ([4]; parent: est. 3.5e8) | other: log2 PPxY/WT ([4]; volcano plot) | Binder
1 | -6.5 log2 | 1.5e+08 | -1.1 log2 | 6.6e+09 abundance | -0.7 log2 | 8.5e+07 | -1.5 log2 | – | – | – | – | – | – | – | ALFA-tagged TXNIP (thioredoxin interacting protein), expressed in HEK293T, Q9H3M7 PPCY331AACA (protein) MVMFKKIKSFEVVFNDPEKVYGSGEKVAGRVIVEVCEVTRVKAVRILACGVAKVLWMQGSQQCKQTSEYLRYEDTLLLEDQPTGENEMVIMRPGNKYEYKFGFELPQGPLGTSFKGKYGCVDYWVKAFLDRPSQPTQETKKNFEVVDLVDVNTPDLMAPVSAKKEKKVSCMFIPDGRVSVSARIDRKGFCEGDEISIHADFENTCSRIVVPKAAIVARHTYLANGQTKVLTQKLSSVRGNHIISGTCASWRGKSLRVQKIRPSILGCNILRVEYSLLIYVSVPGSKKVILDLPLVIGSRSGLSSRTSSMASRTSSEMSWVDLNIPDTPEAAACAMDVIPEDHRLESPTTPLLDDMDGSQDSPIFMYAPEFKFMPPPTYTEVDPCILNNNVQ
2 | – | – | – | 3.8e+09 abundance | – | – | – | -6.6 log2 | 150000 | -4.5 log2 | 4e+09 | -1.5 log2 | 1.6e+06 | -3 log2 | ALFA-tagged TXNIP (thioredoxin interacting protein), expressed in HEK293T, Q9H3M7 PPCY331AACA; PPTY375AATA (protein) MVMFKKIKSFEVVFNDPEKVYGSGEKVAGRVIVEVCEVTRVKAVRILACGVAKVLWMQGSQQCKQTSEYLRYEDTLLLEDQPTGENEMVIMRPGNKYEYKFGFELPQGPLGTSFKGKYGCVDYWVKAFLDRPSQPTQETKKNFEVVDLVDVNTPDLMAPVSAKKEKKVSCMFIPDGRVSVSARIDRKGFCEGDEISIHADFENTCSRIVVPKAAIVARHTYLANGQTKVLTQKLSSVRGNHIISGTCASWRGKSLRVQKIRPSILGCNILRVEYSLLIYVSVPGSKKVILDLPLVIGSRSGLSSRTSSMASRTSSEMSWVDLNIPDTPEAAACAMDVIPEDHRLESPTTPLLDDMDGSQDSPIFMYAPEFKFMPAATATEVDPCILNNNVQ
